Data published in paper PMC8301015, “Atypical Bacilliredoxin AbxC Plays a Role in Responding to Oxidative Stress in Radiation-Resistant Bacterium Deinococcus radiodurans” (Antioxidants, 2021).

Molecular target: the molecule itself
Experiment: non-reducing SDS-PAGE; purified AbxC 0.5 mg/mL in PBS, 15 min, without or with increasing concentrations of H2O2 (or oxidised with diamide); 12% gel, non-reducing; disulfide-linked dimer against monomer

B1: AbxC (atypical BrxC; DR_1832), C-terminal His x 6 tag (enzyme, Deinococcus radiodurans, UniProt Q9RTD3 1-211, looked up)
chain: MTQGQDQVLSPLTTPDEVDQFLKDYPLAAVFKAGTCHKTMQGFGVLETFLQRYELPVGFIRVVDWRPASNHVAELTGLTHHSPQFILFKDGQAQYEVNNWDITPEALGPVFEQQVPQRSGAAQVDAGDSVEPYRQLMQAYLAGQLSDWAFQDQYVTMFRDDASLRSQREFELLSRLFGDPDAYHGGLHQLGAPQDRGDLKARVQSVLDQLG
notes: AbxC (DR_1832), Deinococcus radiodurans R1; monomer 23.7 kDa; single cysteine Cys36; also called putative homolog of BrxC (YtxJ); source: E. coli BL21-CodonPlus (DE3)-RP, purified (Ni-NTA, Superdex 75HR)
With B1 the “stoichiometry N” value was 2.
